Measurements from the nanobody polyreactivity screen of Harvey et al. (2022).

assay: yeast display, Sf9 membrane polyspecificity reagent, FACS + sequencing; frameworks hold sequencing errors
Outline: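 Sorting gates, low and high (top ~1%), were placed on anti-HA fluorescence to track expression and on streptavidin fluorescence to track reagent binding. A clone's polyreactivity label is taken from the gate it came out of. The reagent was 10% biotinylated, detergent-solubilized Sf9 membrane, applied for 1 hour at 4 °C to galactose-induced yeast display cells.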

Sequence	polyreactivity (PSR sort gate)
QVQLVESGVGLVQAGGSLRLSCAASGSIFWQNTMGGYRPAPGKERELVATITSAGSTYYADSVKGRFTISRDNAKNTVSLQMNSLKPEDTAVYYGAKGHHPGHVFHPDYGYDYWGQGTQVTVSS	low polyreactivity
QVQLVESGGGLVQAGGSLRLSCAASGFTFASNGRGGYRQAPGKERELVAVIDWSDDSTYYADSVKGRFTISRDNAKNTVYLQMNSLKPEDTAVYYCNADDWWGGYDYWGQGTQVTVSS	low polyreactivity
QVQLVESGGGLVQAGGRLRLSCAASGSIFSSNAMGWYRQAPGKERELVASIRGSGVSTYYADSVKGRFTISRDNAKNTVYLQMNSMKPEDTAVYYCAARYGRSYFGYYFWGQGTQVTVSS	high polyreactivity
QVQLVESGGGLVQAGGSLRLSCAASGFILYGNARGWYRQAPGKERELVAAISSSGRTNYADYVKGRFTISRDNAKNTVYLQMNRLKPEDTAVYYCADYVRAGYGMGYWGQGTQVTVSS	low polyreactivity
QVQLVESGGGLVQAGGSLRLSCAASGSIFEYYAMGWYRQAPGKERELVAAISSGGPTYYADSVKGRFTISRDNAKNTVYLQMNSLKPEDTAVYYCNADLWYPDYDYWGQGTQLTVSS	low polyreactivity
QVQLVESGGGLVQAGGSLRLSCAAPGSIFPRYAMGWYRPAPGKERELVAAISRSGGSTYYADSVKGRFTISRDNAKNTVYLQMNSLKPEDTAVYYCATDKVSHRRYDYWGQGTQVTVSS	high polyreactivity
QVQLVESGGGLVQAGGSLRLSCAASGRIFLVYAMGWYRQAPGKERELVAAISWRGGRTYYADSVKGRFTISRDNAKNTFYLQMNSLKPEDTAVYYCAAASKYSQFEYDYWGQGTQVTVSS	high polyreactivity
QVQLVESGGGLVQAGGSLRLSCAASGITFPYYAMGWYRQAPGKERELVAAISSSGGSTYYADSVKGRFTISRDNAKNTVYLQMNSLKPEDTAVYYCAAQRYIHYDYWGQGTQVTVSS	high polyreactivity
QVQHVESGGVIVQAGGSHRLSCAASGHIFFYYTMGWYRQAPGKERELVAGITIGGSTNYADSVKGRFTISRDTAKNTVYLQMNSLKPEDTAVYYCNVVKYVYIYSYWEYYYWGQGTQVTVSS	low polyreactivity
QVQLVESGGGLVQAGGSLRLSCAASGRTLGYNAMGWYRQAPGKARELVASINSGVSTNYADSVQGRFTISRDNAKNTVYLQMNSLKPEDTAVYYCAAEKYGRGAGREGWESDYWGQGTQVTVSS	low polyreactivity
QVQLVESGGGLVQAGGSLRLSCAASGSIFGGYTMGWYRQAPGKERELVAAISRRGGNTYYADSVKGRFTISRDNAKNTVYLQMNSLKPEDTAVYYCAVRWPSARIPVKLDYWGQGTQVTVSS	high polyreactivity
QVQLVESGGGLVQAGGSLRLSCAASGSTFKYYAMGWYRQAPGKERELVAAISYRGGRTYYADSVKGRFTISRDNAKNTVNLQMNSLKPEDTAVYYCAAVKPYYIQYQGSAGYDYWGQGTQVTVSS	high polyreactivity
QVQLVESGGGLVQAGGSLRLSCAASGFILYYNAMGWYRQAPGKERELVADISRRGTSTYYADSVKGRFTISRDNAKNTVYLQMNRLKPEDTAVYYCKAVPSARTQPYNGWGQGTQVTVSS	high polyreactivity
QVQLVESGGGLVQAGGSLSLSCAASGRTFVRYAMGWYRQAPGKERELVAAISRNAGRTYYADSVKGRFTISRDNAKNTVYLQMNSLKPEDTAVYYCAAPGRNLGTGFYYWGQGTQVTVSS	high polyreactivity
QVQLVESGGGLVQAGGSLRLSCAASGLTFKRYAMGWYRQAPGKERELVASITGNGGSTYYADSVKGRFTISRDNAKNTVYLQMNSLIPEDTAVYYCNSRRYVRTSQQPLYDYWGQVTQVTVSS	high polyreactivity
QVQLVESGGGLVQAGGSLRLSCAASGLIFGGNAMGWYRQAPGKERELVAAISRTGGRTYYADSVKGRFTISRDNAKNTVFLQMNSLKPEDTAVYYCNAATSYYTYTYGYWGQGTQVTVSS	high polyreactivity
QVQLVESGGGLVQAGGSLRLSCAASGSIFVRYAMGWYRQAPGKERELVAAISSGGRTYYADSVKGRFTISRDNAKNTVYLQMNSLKPEDTAVYYCNAVKRVPSLGPYDYWGQGTQVTVSS	high polyreactivity
QVQLVESGGGLVQAGGSLRLSCAASGSIFGYYAMGWYRQAPGNERELVAAISFSAGNTYYADSVKGRFTISRDNAKNTVYLQMNSLKPEDSAVYYCAADPKYWTGWIWTSGYDYWGQGTQVTVSS	high polyreactivity
QVQLVDSGGGLVQAGGSLRLSCAASGSIFSFYAMGGSRQAPGKERELVAAIDGGGSTDYADSVKGRFTISRDHAKYTVYLQMNSLKPEDTAVYDCAARDIYHYDWGQGTQVTVSS	low polyreactivity
QVQLVESGVGLVQAAGSLRLSCAASGRIFKYYAMGWYRQAPGKERELVATISRGSRTNYADSVKGRFTISRDNAKNTVYLQMNSLKPEDTAVYYCAAQRLSASRPYGYWGQGTQVTVSS	high polyreactivity
QVQLVDSGGALVQAGGSLRISCAASGYIFSYKAMGWYRQAPGKERELVAAITSGGSTNYADSVKGRFTISRDNAKNTVYLQMKSLKPEDTAVYYCAAERGDTAYRKYDYWGQGTQVTVSS	low polyreactivity

Sequence	polyreactivity (PSR sort gate)
QVQLVESGGGLVQAGGSLRLSCAASGRILWGNVMGWYRKAPGKERELVATITHGGSTNYADSVKGRFTISRDNAKNTVYLQMNSLKPEDTAVYYCARATRIQFYRRPYNYWGQGTQVTVSS	high polyreactivity
QVQLQESGGGLVQAGGSLRLRCAASGTISDRAGMGWYRQAPAKNAIVATIDRGTNTNYADSVKGRFTISRDNAKNTVYLQMNSLKPEDTAVYNCAADGRYYIYLDYWGQGTQVTVSS	low polyreactivity
QVQLVESAGGLVQAGGSLRLSCAASGFTFREYAMGWYRQAPGKERELVAVITSGDNTYYADSVKGRFTISRDNAKNTVYLQMNSLKPEDTAVYYCAKDYNRYYWPWVIRGYDYWGQGTQVTVSS	low polyreactivity
QVQLVESGGGLVQAGGSLRLSCAASGRIFSRYAMGWYRQAPGKERELVAAITQSGTSTYYADSVKGRFTISRDNAKNTVYLQMKSLKPEDTAVYYCNAYRQYRYDYWGQGTQVTVSS	low polyreactivity
QVQLVESGGGLVQAGGSLRLSCAASGSTFRYYVMGWYRQEPGKEREFVAAISAGGGRTYYADSVKGRFTISRDNSKNTVYLQMNSLKPEDTAVYYCAATKGNILRRSRYDYWGQGTQVTVSS	high polyreactivity
QVQLVESGGGLVQAGGSLRLSCAASGRIFTVNAMGWYRQAPGKERELVAAISKSGGRTYYADSVKGRFTISRDNAKNTVYLQMNSLKPEDTAVYYCAKRVRTGSVGNFNYWGLGTQVTVSS	high polyreactivity
QVQLVESGGGLVQAGGSLRLSCAASGSTFDQYAMGWYRQAPGKERELVAAISWSGGRTSYAVSVKGRFTISRDTAKNTVYLQMNSLKPEDTAVYYCAADLWFWGFHYPSRMDYWGQGTQVTVSS	high polyreactivity
QVQLVESGGGLVQAGGSLRLSCAAYGSIFIYAMGGYRQAPGKVRELVAAISSSGGSTYYADSVKGRFTISRDNAKNTVYLQMNSLKPEDTAVYYCAARYTYSGDKGYYWGQGTQVTVSS	high polyreactivity
QVQLVESGGGLVQAGGSLRLSCAASGFIFGYYAMGWYRQAPGKERELVAAMSRGGITYYADSVNGRFTISRDNAKNTVYLQMNSLKPEDTAVYYCAAPNRYSVPMYYWGQGTQVTVSS	low polyreactivity
QVQLVESGGGLVQAGGSLRLSCAASGITFVRYAMGWYRQAPGKERELVAAISSGGRTIYADSVKGRFTISRDHANNTVFVHMNSLKPEDTAVYYCSKRRARSGQDYDYWGQGTQVTVSS	low polyreactivity
QVQLVESGGGLVQAGGSLRLSCAASGRTFGTNTMGWYRQAPGKEREFVATITSSGGSTYYADSVKGRFTISRDNAKNTVYVQINSLKPEATAVYYCATDPYGGNTLYPSLRYDYWGQGTQVTVSS	low polyreactivity
QVQLVESGGGLVQAGGSLRLSCAASGGTFSRYAMGWYRQAPGKERELVAAITRSGASTFYADSVKGRFTISRDNAKNTVYLQMNSLKPEDTAVYYCAADTYVYNEYDYWGQGTQVTVSS	high polyreactivity
QVQLVESAGGLVQEGGRLRLSCAASGITLGAYAMGRYRQAPGKEREMVARIRIGGSKYYADSVKGRFTISRDNEKNTVYLQMNSLKPEDTAVYYCATRWQEYAGDYWGDYWGQGTHVTVSS	low polyreactivity
QVQLVDSGGGLVQAGGTLRLSCAASGRTIYRNDMGWYRQAPGQERELVAAITSSGGTTYADSVKGRFTISRDNAKNTGYLQMNSLKPEDTAVYYCAAVYAYPNIYDYWGQGTQVTVSS	low polyreactivity
QVQLVESGGGLVQAGGSLRLSCAASGSIFRGNAMGWYRQAPGKERELVAAISKSGGSTYYADSVKGRFTISRDNAKNTVYLQMNSLKPEDTAVYYRAARTTYLYGMYYWGQGTQVTVSS	low polyreactivity
QVQLVESGGGLVQAGGSLRLSCAASGITISVNDMGWYRQAPGKERELVAAISSGDSTNYADSVKGRFTISRDNAKNTVYLQMNSLKPEDTAVSYCAALEGSLTGWQTYDYWGQGTQVTVSS	low polyreactivity
QVQLVESGGGLVQAGGSLRLSCAASGLTFKENVMGWYRQAPGKERELVAAISTGASTYYADSVKGRCTISRDNAKNTVYLQMNSLKPEDTAVYYGAKRVTRWYGYWGQGTQVTVSS	high polyreactivity
HVQLVESGGGLVQAGGSLRLTCAAYGINFTDYAMGWYRQDPGKEMELVAAISSGGGSTYYADSVKGRFTISLDYAKNTVYLQMNSLKPEDTAVYYCAAEGYLISGAGDYMYDYYWGQGTQVTVSS	high polyreactivity
QVQLQESGGGMVQAGGSLRLSCAASGYISWADYMGWYRQAPGKERELVAGIGYGSTTYYADSVKGRFTISRDNAKNTAYLQMNSLKPEDTAVYYCNADVRYGRDHWGQGTQVTVSS	low polyreactivity
QFQLVESGGGLVQAGGSLRLSCAASARTFVSNAMGWDRQAPGKERELVADITSGGSTDYADSVKGRFTSSRDNAKNTVYVQMNSVKPEDTAVSYCATDLWRWYGWFDYWGQGTQVTVSS	low polyreactivity
